Reference: patent US20240325549A1 (HANGZHOU ZHONGMEIHUADONG PHARMACEUTICAL, published 2024)

T1: human GIP receptor (human, UniProt P48546 22-466)
T1 sequence (looked up): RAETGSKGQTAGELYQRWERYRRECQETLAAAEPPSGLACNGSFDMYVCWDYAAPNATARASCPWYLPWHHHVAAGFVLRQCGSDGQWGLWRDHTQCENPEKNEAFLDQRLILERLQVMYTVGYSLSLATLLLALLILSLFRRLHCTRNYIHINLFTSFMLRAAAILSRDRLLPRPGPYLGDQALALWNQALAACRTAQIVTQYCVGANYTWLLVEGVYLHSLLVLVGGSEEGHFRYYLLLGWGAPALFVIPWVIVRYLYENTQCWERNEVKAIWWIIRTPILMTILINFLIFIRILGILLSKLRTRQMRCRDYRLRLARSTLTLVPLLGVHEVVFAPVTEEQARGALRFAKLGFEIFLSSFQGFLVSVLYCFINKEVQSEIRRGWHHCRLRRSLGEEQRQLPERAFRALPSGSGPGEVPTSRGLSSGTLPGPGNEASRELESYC


What was measured:
human GLP-1 receptor [1] = molecular target: T2, human GLP-1 receptor (human, UniProt P43220 24-463); test: cell-based or functional assay
human GIP receptor [2] = molecular target: T1, human GIP receptor; test: cell-based or functional assay
human GIP receptor [3] = molecular target: T1, human GIP receptor; test: radioligand competition: displacement of [125I]GIP from membranes of cells over-expressing human GIPR; ratio = Ki of GIP / Ki of compound
Protocol: 98 μL of membrane dissolved in binding buffer (50 mM HEPES pH 7.4, 5 mM MgCl₂, 1 mM CaCl₂, 0.1% BSA, 0.005% Tween-20) is transferred to a 96-well test plate (15 μg/well). The compound is serially diluted in DMSO, and then, 2 μL of the diluted compounds or 100% DMSO is added to the test plate containing the membrane solution. […] The test plate is left at room temperature for 90 minutes. […] After drying at 37° C. for 2 hours, 50 μL of scintillation fluid is added to each well. The plate is read with a MicroBeta2 scintillation counter after sealing and settling for at least 1 hour so as to determine the membrane bound radioligand level.

human GLP-1 receptor [4] = molecular target: T2, human GLP-1 receptor; test: radioligand competition: displacement of [125I]GLP-1 from membranes of cells over-expressing human GLP-1R; ratio = Ki of GLP-1 / Ki of compound
Protocol: 89 μL of membrane dissolved in binding buffer (50 mM Hepes, pH 7.4, 5 mM MgCl₂, 5 mM EDTA, 0.005% TWEEN, 0.005% HSA) is transferred to a 96-well test plate (5 μg/well). The compound is serially diluted in DMSO, and then, 1 μL of the diluted compound or 100% DMSO is added to the test plate containing the membrane solution. 10 μL of [¹²⁵I] […] The test plate is left at room temperature for 90 minutes. The membrane complexes are harvested into a GF/B plate pre-coated with 0.5% PEI by using a Cell Harvester, and washed for 3 times with 500 μL of pre-cooled elution buffer (50 mM Hepes, pH 7.4, 500 mM NaCl) at 4° C. After drying at 37° C. for 2 hours, 50 μL of scintillation fluid is added to each well. The plate is read with a MicroBeta2 scintillation counter after sealing and settling for at least 1 hour so as to determine the membrane bound radioligand level.

Binder | EC50 value (ratio of the EC50 of the endogenous ligand GLP-1 to the EC50 of the test compound), cAMP reporter gene (luciferase) assay in HEK293/CRE/GLP-1R cells (human GLP-1 receptor [1]) [ratio] | EC50 value (ratio of the EC50 of the endogenous ligand GIP to the EC50 of the test compound), LANCE Ultra cAMP assay in HEK293/GIPR cells (human GIP receptor [2]) [ratio] | Ki ratio (human GIP receptor [3]) [ratio] | Ki ratio (human GLP-1 receptor [4]) [ratio]
YXEGTXTSDYXIXLDKQAQAEFVKWLLKGGPSSGAPPPSK (Aib at 2, αMePhe at 6, Aib at 11, Aib at 13; C-terminal primary amide) [P001] | 52.1 | 7.13 | 8.82 | 19.5
YXEGTXTSDYXIXLDKQAQAEFVKWLLKGGPSSGAPPPSK (Aib at 2, αMePhe at 6, Aib at 11, Aib at 13; K at position 28 conjugated at the ε-amino with ([2-(2-amino-ethoxy)-ethoxy]-acetyl)2-(γ-Glu)1-CO-(CH2)16-CO2H; C-terminal primary amide) [P008] | 4.79 | 1.67 | 0.16 | 1.09
YXEGTXTSDYXIXLDKQAQAEFVKWLLKGGPSSGAPPPSK (Aib at 2, αMePhe at 6, Aib at 11, Aib at 13; K at position 24 conjugated at the ε-amino with ([2-(2-amino-ethoxy)-ethoxy]-acetyl)2-(γ-Glu)1-CO-(CH2)16-CO2H; C-terminal primary amide) [P007] | 5.84 | 1.15 |  | 0.47
YXEGTXTSDYXIXLDKQAQAEFVKWLLKGGPSSGAPPPSK (Aib at 2, αMePhe at 6, Aib at 11, Aib at 13; K at position 24 conjugated at the ε-amino with ([2-(2-amino-ethoxy)-ethoxy]-acetyl)2-(γ-Glu)1-CO-(CH2)18-CO2H; C-terminal primary amide) [P013] | 2.41 | 0.86 | 0.14 | 0.28
